Data taken from US20210100901A1 (MAINE MEDICAL CENTER RESEARCH INSTITUTE, published 2021).

Legend:
integrin αvβ3 [1] = target: T1, integrin αvβ3 (human, UniProt P06756 31-1048; P05106 27-788); assay: HUVEC adhesion to immobilized peptide with function blocking antibodies
T1 construct: whole, on cells; Endogenous receptor on cells; also called β3 integrin
Procedure: RGD peptides (P-1, P-2, P-3, P-4, P-5, and P-C) were immobilized (100 μg/ml) to wells. HUVEC, HMVEC, HRMVEC, and HDF cells were suspended in adhesion buffer (RPMI containing 1 mM MgCl2, 0.2 mM MnCl2 and 0.5% BSA) and 1×10^5 cells were seeded into the wells in the presence or absence of P4C10, LM609, P1F6 or control antibodies (100 μg/ml). Cells were allowed to attach for 25 min at 37° C. Media containing non-attached cells was aspirated and attached cells were washed with PBS and stained with crystal violet. Cell adhesion was quantified by measuring the optical density of eluted dye. Adhesion assays were completed at least three times with triplicate wells.
It is well established that multiple integrins recognize RGD amino acid motifs within ECM proteins. However, the ability of an integrin to bind distinct RGD epitopes depends in part on its orientation within the parent molecule and the C-terminal amino acid sequences flanking the RGD motif (25-27). Potential cell surface receptors that mediate interactions with the RGDKGE (SEQ ID NO. 1) containing collagen P-2 peptide were identified. The ability of endothelial cells to bind the RGD collagen peptides P-1 and P-2 in the presence or absence of function blocking anti-integrin antibodies was examined.

integrin αvβ3 [2] = target: T1, integrin αvβ3; assay: cell-based or functional assay

T1 sequence (P06756 31-1048, chain 1 of 2): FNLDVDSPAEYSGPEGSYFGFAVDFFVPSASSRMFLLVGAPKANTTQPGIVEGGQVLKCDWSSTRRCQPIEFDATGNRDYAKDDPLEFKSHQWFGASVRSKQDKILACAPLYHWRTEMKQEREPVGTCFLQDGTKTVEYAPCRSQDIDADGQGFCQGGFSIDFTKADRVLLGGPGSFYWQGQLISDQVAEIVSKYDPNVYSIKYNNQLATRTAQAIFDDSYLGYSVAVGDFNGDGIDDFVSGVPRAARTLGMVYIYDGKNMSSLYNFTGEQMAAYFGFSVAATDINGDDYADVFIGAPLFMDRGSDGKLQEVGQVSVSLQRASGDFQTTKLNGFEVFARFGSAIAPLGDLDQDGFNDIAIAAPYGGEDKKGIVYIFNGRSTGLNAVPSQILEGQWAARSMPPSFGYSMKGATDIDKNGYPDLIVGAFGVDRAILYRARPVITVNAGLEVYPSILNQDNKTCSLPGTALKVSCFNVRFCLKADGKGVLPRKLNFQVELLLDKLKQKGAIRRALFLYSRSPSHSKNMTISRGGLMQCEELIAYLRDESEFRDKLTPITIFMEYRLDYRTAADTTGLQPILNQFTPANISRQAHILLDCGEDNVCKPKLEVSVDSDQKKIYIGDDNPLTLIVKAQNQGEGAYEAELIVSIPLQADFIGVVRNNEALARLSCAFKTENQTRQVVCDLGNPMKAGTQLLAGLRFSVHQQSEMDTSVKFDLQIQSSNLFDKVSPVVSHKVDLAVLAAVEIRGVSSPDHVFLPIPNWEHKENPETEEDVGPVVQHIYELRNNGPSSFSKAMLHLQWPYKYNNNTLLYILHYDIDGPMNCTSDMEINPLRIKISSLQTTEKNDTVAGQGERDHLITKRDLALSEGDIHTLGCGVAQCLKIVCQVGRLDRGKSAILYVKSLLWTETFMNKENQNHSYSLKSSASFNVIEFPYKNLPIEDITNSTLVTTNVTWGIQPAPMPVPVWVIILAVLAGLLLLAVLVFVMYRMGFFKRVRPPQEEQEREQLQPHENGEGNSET
T1 sequence (P05106 27-788, chain 2 of 2): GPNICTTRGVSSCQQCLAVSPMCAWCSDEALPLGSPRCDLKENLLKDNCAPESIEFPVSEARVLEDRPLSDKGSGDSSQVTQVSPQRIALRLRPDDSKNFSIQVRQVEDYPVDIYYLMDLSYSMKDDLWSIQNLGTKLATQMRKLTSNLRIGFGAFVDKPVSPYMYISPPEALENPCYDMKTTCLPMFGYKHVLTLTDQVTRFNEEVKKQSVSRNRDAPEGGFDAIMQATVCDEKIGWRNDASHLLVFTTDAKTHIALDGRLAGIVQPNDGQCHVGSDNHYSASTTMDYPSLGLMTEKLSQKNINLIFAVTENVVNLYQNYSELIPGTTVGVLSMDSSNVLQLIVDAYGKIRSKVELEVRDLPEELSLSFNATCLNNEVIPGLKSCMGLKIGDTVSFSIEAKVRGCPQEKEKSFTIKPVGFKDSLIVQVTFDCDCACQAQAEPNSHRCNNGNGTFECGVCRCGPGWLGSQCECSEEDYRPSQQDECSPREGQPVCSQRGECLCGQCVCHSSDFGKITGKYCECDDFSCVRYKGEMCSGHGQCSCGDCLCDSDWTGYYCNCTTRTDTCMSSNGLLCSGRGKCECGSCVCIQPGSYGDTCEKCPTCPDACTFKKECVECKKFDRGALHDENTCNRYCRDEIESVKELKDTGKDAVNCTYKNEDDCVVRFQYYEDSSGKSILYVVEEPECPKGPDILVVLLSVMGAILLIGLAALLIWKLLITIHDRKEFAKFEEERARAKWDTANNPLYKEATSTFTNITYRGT

Row | binding result (integrin αvβ3 [1]) | Src phosphorylation (Western blot of HUVEC attached to the peptide, serum free) (integrin αvβ3 [2]) | β3-integrin phosphorylation (Western blot of HUVEC attached to the peptide, no growth factors) (integrin αvβ3 [2]) | Binder
1 | binds |  |  | CKGDRGDAPGC (2) [Synthetic collagen RGD containing peptide P-1 (CKGDRGDAPGC)]
2 |  | ~2 fold | > 3 fold | CQGPRGDKGEC [Synthetic collagen RGD containing peptide P-2 (CQGPRGDKGEC)]
